What is called Kd is a measure of binding affinity in units of concentration. Lower therefore signals tighter binding.

Drawing on patent publication JP2020002075A (dated 2020), this text covers Kd for 2 molecules.

Assay [1] deals with T1, ヒトポドプラニン (ヒトポドプラニン提示CHO細胞, CHO-hPDPN) (human, UniProt Q86YL7 23-162).
T1 construct: whole, on cells
T1 sequence (looked up): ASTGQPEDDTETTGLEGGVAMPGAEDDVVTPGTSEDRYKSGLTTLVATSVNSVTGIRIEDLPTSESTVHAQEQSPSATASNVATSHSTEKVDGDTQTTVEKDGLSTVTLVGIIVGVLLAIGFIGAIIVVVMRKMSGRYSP
In words: flow cytometry on CHO-hPDPN, fit f(x)=a*x/(x+Kd). On the technique in general: In flow cytometry, cells or beads pass a laser one at a time.

The target of assay [2] is T2, ラットポドプラニン (ラットポドプラニン提示CHO細胞, CHO-rPDPN) (rat, UniProt Q64294 23-166).
T2 construct: whole, on cells
T2 sequence (looked up): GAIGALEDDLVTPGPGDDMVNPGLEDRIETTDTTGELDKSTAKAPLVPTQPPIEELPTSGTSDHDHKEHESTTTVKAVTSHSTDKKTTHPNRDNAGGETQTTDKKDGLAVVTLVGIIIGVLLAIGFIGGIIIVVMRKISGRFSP
In words: flow cytometry on CHO-rPDPN, fit f(x)=a*x/(x+Kd).

In assay [3] the target is T3, ポドプラニン (ポドプラニン提示CHO細胞, 種の記載なし).
T3 construct: whole, on cells
In words: flow cytometry; cells and species not named at this place.

Substitutions are numbered along the chain they refer to.

B1: clone 1 (第一世代交差性一本鎖可変領域断片) (scFv)
scFv: EVQLKESGGGLVQSGGSLRLSCAASGFSLTDYGVNWVRQAPGKGLEWVGVIWGGGNTYYNSALKSRFTISKDNSKNTLYLQMNSLRAEDTAVYYCAKHRGAWGQGTLVTVSAAGGGGSGGGGSGGGGSDIVMTQSPSTLAVSLGEKATINCKSSKSLLNSGNQKNYLIWYQQKPGQPPKLLIYGASTRESGVPDRFSGSVSGTDFTLTISSLQAEDLAVYYCQNDHTYPLTFGQGTKVEIKRTV
notes: From the Hu2LPMab-16 scFv library; also called クローン1; 第一世代交差性抗体; not shown: C-terminal FLAG tag and His tag
With B1, the Kd in assay [1] was determined as 0.0063 µM; in assay [2], 0.108 µM; in assay [3] it was 0.108 µM.

B2: clone 2 (scFv)
scFv: B1 scFv with S14P, T138N, K155Q, I168N, G184R, T231I
notes: From the Hu2LPMab-16 scFv library; also called クローン2; not shown: C-terminal FLAG tag and His tag
Take B2: the Kd stood at 0.0065 µM in assay [1] and 0.5 µM in assay [2].
